Results as given in publication PMC10313831.

Target: RPA-MeGFP (Saccharomyces cerevisiae) (UniProt P22336+P26754+P26755)
Test: single-molecule ssDNA curtains (TIRFM)
Conditions: 10 pM then 100 pM RPA; EMSA: 20 mM Tris-HCl pH 7.5, 150 (or 15) mM KCl, 1 mM DTT, 100 ug/mL BSA, 5 nM DNA, 30 C 10 min; curtains: 40 mM Tris-HCl pH 7.5, 150 or 15 mM NaCl, 2 mM …

RPA-MeGFP (Saccharomyces cerevisiae), sequence (P22336 whole entry, chain 1 of 3): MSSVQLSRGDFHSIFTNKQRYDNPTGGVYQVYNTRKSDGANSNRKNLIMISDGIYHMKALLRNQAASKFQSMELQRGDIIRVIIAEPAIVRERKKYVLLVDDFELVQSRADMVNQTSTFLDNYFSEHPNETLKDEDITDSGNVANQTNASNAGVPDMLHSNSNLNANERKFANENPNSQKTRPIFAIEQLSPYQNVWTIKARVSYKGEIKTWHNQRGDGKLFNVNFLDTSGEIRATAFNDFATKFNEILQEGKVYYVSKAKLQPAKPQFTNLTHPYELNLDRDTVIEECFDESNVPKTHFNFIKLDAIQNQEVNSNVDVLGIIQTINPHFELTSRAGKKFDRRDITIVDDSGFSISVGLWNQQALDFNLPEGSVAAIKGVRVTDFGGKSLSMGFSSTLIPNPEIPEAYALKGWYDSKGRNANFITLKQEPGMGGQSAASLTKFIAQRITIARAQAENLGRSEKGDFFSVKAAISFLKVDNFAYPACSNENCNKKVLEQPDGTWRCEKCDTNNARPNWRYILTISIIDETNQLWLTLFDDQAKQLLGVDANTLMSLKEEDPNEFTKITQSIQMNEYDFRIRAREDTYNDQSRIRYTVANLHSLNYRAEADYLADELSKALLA
RPA-MeGFP (Saccharomyces cerevisiae), sequence (P26754 whole entry, chain 2 of 3): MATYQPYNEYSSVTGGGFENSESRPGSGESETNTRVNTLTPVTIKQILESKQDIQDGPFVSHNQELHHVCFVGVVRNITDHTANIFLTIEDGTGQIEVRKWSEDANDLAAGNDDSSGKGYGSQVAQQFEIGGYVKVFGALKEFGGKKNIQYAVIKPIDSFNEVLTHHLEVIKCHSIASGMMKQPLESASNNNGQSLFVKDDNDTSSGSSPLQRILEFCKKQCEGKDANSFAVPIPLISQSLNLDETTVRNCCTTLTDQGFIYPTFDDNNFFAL
RPA-MeGFP (Saccharomyces cerevisiae), sequence (P26755 whole entry, chain 3 of 3): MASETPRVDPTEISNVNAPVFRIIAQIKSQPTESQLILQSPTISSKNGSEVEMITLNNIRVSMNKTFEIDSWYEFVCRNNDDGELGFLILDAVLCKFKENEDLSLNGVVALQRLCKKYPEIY

**Q.** M13 ssDNA was tested. Which binding signal (% length extension) did it give?
**A.** 359
